{
  "source": "paper PMC5933801",
  "about": "“Cryo-EM structure of infectious bronchitis coronavirus spike protein reveals structural and functional evolution of coronavirus spike proteins” (PLoS Pathogens, 2018)",
  "proteins": {"B1": {"name": "IBV spike ectodomain (avian infectious bronchitis coronavirus, strain M41) (domain or fragment)", "chain": "LYDSSSYVYYYQSAFRPPNGWHLHGGAYAVVNISSESNNAGSSPGCIVGTIHGGRVVNASSIAMTAPSSGMAWSSSQFCTAHCNFSDTTVFVTHCYKYDGCPITGMLQKNFLRVSAMKNGQLFYNLTVSVAKYPTFKSFQCVNNLTSVYLNGDLVYTSNETTDVTSAGVYFKAGGPITYKVMRKVKALAYFVNGTAQDVILCDGSPRGLLACQYNTGNFSDGFYPFINSSLVKQKFIVYRENSVNTTFTLHNFTFHNETGANPNPSGVQNILTYQTQTAQSGYYNFNFSFLSSFVYKESNFMYGSYHPSCNFRLETINNGLWFNSLSVSIAYGPLQGGCKQSVFSGRATCCYAYSYGGPSLCKGVYSGELDLNFECGLLVYVTKSGGSRIQTATEPPVITRHNYNNITLNTCVDYNIYGRTGQGFITNVTDSAVSYNYLADAGLAILDTSGSIDIFVVQGEYGLTYYKVNPCEDVNQQFVVSGGKLVGILTSRNETGSQLLENQFYIKITNGTRRFRRSITENVANCPYVSYGKFCIKPDGSIATIVPKQLEQFVAPLLNVTENVLIPNSFNLTVTDEYIQTRMDKVQINCLQYVCGNSLDCRDLFQQYGPVCDNILSVVNSIGQKEDMELLNFYSSTKPAGFNTPFLSNVSTGEFNISLLLTTPSSPRRRSFIEDLLFTSVESVGLPTDDAYKNCTAGPLGFLKDLACAREYNGLLVLPPIITAEMQTLYTSSLVASMAFGGITAAGAIPFATQLQARINHLGITQSLLLKNQEKIAASFNKAIGRMQEGFRSTSLALQQIQDVVNKQSAILTETMASLNKNFGAISSVIQEIYQQLDAIQANAQVDRLITGRLSSLSVLASAKQAEHIRVSQQRELATQKINECVKSQSIRYSFCGNGRHVLTIPQNAPNGIVFIHFSYTPDSFVNVTAIVGFCVKPANASQYAIVPANGRGIFIQVNGSYYITARDMYMPRAITAGDIVTLTSCQANYVSVNKTVITTFVDNDDFDFNDELSKWWNDTKHELPDFDKFNYTVPILDIDSEIDRIQGVIQGLNDSLIDLEKLS", "modifications": "glycans N-linked to 20 sites", "notes": "Spike protein of avian infectious bronchitis coronavirus (IBV) strain M41, GenBank ABI26423.1, ectodomain residues 20-1084; transmembrane anchor and intracellular domain replaced by GCN4 and His6 tags; The structural model holds residues 21-1022 except 702-710; The GCN4 tag is a trimerization tag; also called trimeric IBV spike ectodomain; source: Sf9 insect cells (Bac-to-Bac), harvested from …"}},
  "molecular_target": "the molecule itself",
  "experiment": "cryo-EM structure; IBV spike ectodomain 0.35 mg/ml in 2 mM Tris pH7.2 and 20 mM NaCl, plunge-frozen; pre-fusion state; three-fold noncrystallographic symmetry constraints in refinement",
  "data": [
    {"protein": "B1", "values": [
      {"measurement": "stoichiometry N", "value": 3}
    ]}
  ]
}
